Values of other authors, collected in article PMC4067574.
Like-named read-outs stand apart in the source and are kept apart here.

Tests used:
C3b C3b (Homo sapiens) [1] = biological target: C3b C3b (Homo sapiens) (UniProt P01024)
C3b C3b (Homo sapiens) [2] = biological target: C3b C3b (Homo sapiens) (UniProt P01024); remark: listed apart in the source

Chain of C3b C3b (Homo sapiens) (P01024 566-670): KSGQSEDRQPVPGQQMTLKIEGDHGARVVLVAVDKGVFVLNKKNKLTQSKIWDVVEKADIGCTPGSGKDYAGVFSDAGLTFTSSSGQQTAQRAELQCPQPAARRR
Chain of complement factor H C-terminal fragment C-terminal two modules (P08603 1103-1231): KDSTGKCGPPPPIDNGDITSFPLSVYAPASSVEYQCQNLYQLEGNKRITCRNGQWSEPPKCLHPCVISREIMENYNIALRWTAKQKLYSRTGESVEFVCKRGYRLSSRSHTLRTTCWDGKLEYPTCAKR
Chain of complement factor H rFH1-4 N-terminal modules 1-4 (P08603 19-264): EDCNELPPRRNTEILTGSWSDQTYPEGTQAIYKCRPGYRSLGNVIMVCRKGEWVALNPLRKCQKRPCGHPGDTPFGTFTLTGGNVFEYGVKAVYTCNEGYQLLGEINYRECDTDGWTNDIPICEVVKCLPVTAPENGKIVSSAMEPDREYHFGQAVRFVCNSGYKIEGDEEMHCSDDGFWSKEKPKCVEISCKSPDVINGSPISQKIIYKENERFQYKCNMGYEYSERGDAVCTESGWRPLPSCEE

Substance: complement factor H C-terminal fragment C-terminal two modules (from UniProt P08603)
- Kd (C3b C3b (Homo sapiens) [1]): 4 µM

Substance: complement factor H rFH1-4 N-terminal modules 1-4 (from UniProt P08603)
- Kd (C3b C3b (Homo sapiens) [2]): 10 µM
